Laboratory results: publication PMC7495503

Molecular target: T1, Pgi8Cas13b (Porphyromonas gingivalis ATCC 33277, UniProt B2RL97 1-1119)
T1 sequence: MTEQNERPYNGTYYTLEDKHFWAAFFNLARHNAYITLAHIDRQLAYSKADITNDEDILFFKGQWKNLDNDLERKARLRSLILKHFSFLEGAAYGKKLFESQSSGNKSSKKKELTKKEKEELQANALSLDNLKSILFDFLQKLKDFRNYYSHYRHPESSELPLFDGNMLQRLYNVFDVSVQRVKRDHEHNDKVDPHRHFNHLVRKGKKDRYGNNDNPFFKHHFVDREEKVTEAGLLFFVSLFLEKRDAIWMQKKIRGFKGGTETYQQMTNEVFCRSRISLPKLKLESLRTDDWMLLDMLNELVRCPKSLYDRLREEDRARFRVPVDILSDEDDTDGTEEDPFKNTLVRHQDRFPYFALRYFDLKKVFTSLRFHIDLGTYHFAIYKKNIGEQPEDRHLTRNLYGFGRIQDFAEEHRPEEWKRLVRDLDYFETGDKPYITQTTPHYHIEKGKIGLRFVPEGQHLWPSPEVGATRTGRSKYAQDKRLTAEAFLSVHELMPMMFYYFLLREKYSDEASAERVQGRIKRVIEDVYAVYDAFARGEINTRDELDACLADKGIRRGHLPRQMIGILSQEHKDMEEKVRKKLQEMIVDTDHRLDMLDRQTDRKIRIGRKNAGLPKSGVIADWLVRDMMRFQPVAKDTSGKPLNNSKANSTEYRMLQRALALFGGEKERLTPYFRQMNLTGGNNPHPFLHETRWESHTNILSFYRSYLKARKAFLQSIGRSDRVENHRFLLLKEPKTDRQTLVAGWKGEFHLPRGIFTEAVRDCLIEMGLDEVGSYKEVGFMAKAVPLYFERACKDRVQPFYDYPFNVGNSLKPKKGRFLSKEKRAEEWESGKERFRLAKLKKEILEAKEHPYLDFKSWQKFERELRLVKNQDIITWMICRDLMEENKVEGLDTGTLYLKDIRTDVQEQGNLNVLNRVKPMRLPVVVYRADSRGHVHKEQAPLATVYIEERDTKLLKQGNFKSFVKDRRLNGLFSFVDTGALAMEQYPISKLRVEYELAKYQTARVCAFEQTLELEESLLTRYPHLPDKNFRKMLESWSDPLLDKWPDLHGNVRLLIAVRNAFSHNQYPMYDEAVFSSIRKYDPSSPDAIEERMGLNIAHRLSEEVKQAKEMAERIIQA
Experiment: EMSA

B1: Pgi8 crRNA (SP2), Cy5 body-labeled (structured_RNA)
RNA: GCAAGUGGAAUUAAUCUUUUUUCUUCUUUACGUUGGAUCUUCCCUCUAUUCGAAGGGUACACACAAC
B1 was tested, and the Kd was 18 nM.
